Read-outs that look alike come from different tables or passages of the source.

From US20230106083A1, “SILICON-FLUORIDE HETEROAROMATIC SYSTEMS FOR APPLICATIONS IN POSITRON EMISSION TOMOGRAPHY (PET) MOLECULAR IMAGING” (The Regents of the University of California, priority 2019, published 2023) come the findings set out here.

Data set [1] is described as follows: MicroPET/CT biodistribution of [^18F]-17 in normal mice (ROI quantification). The data set is classed as in vivo, C57BL6 mice. The note with it: for tissue uptake at 1 h / tissue uptake at 2 h: C57BL/6, mouse; for tissue uptake at 2 h: 2 h post-injection. Here is the method: Micropositron emission tomography-computed tomography (microPET/CT) imaging studies were performed in normal mice to investigate the in vivo stability of the silicon-fluorine bond in the Heteroaromatic silicon fluoride acceptor peptide conjugate, [^18F]-17. Reformulated [^18F]-17 (2.2 MBq) was injected via the tail vein into C57BL/6 mice (n=3), and microPET/CT scans were acquired. […] Alternatively, the GI activity may also be a result of this particular peptide, for which the full cholecystokinin construct plays important roles in stimulating digestion within the GI system.
Animal studies were approved by the UCLA Animal Research Committee and carried out according to the guidelines of the Department of Laboratory Animal Medicine at UCLA. Female C57BL6 mice were injected intravenously via tail vein with approximately 2.2 MBq (60 μCi) of [^18F]-17. Animals were kept warm on heating pads throughout the imaging procedures. At 1 and 2 h after tracer injection, mice were anesthetized with 2% isoflurane in oxygen and placed in dedicated Genisys8 imaging chambers for PET/CT imaging on the Genisys8 PET/CT (Sofie Biosciences). PET scans were acquired for 10 min with an energy window of 150-650 keV reconstructed using ML-EM, followed by CT acquisition. All PET images were corrected for CTbased photon attenuation, detector normalization and radioisotope decay (scatter correction was not applied) and converted to units of percent injected dose per gram (% ID/g). Images were analyzed by drawing regions-of-interest (ROI) in select tissues using AMIDE v1.0.5. See e.g. Loening et al., Mol. Imaging 2003, 3, 131.

Data set [2] can be described thus: Stability screen of HetSiFA [^18F]-12 in acetonitrile (RCC by radio-TLC over time). Type of data set: physicochemical. As to conditions: room temperature, 1.8 mg (9.4 μmol) Et4NHCO3 used for elution. Here is the method: Isotopic exchange reactions were conducted in 1 mL Eppendorf tube containing hetroarylfluorosilanes 1 in dry acetonitrile (3 mM stock solution, 50 μL). […] An aliquot of the crude reaction mixture was spotted on a silica gel coated TLC plate, developed in a glass chamber using [^18F]fluoride Het Si tBu tBu F Het Si tBu tBu ^18F Et4NHCO3 CH3CN, 23° C. 1 [^18F]-1 S15 acetonitrile (100%) or acetonitrile:water (95:5) as the eluent and analyzed by radio-TLC using a miniGITA*TLC scanner. The radiochemical conversion (RCC) was calculated by dividing the integrated area of the ^18F-fluorinated product peak by the total integrated area of all peaks on the TLC and multiplying by 100 to convert to percentage units. Isotopic exchange and purity was confirmed by analytical HPLC by co-injecting with the 19F-reference standard (UV absorbance at 254 nm). An aliquot of the crude reaction mixture (10 μL) was added to the 19F-reference standard (1 mg/mL) in acetonitrile (10 μL) and the sample was injected into the analytical HPLC.
[^18F]TEAF was obtained by eluting fluoride ion with high base or low base, following the protocol described above.

`CSCC[C@H](NC(=O)[C@H](Cc1c[nH]c2ccccc12)NC(=O)CN1CCN(CC(=O)O)CCN(CC(=O)O)CCN(CC(=O)O)CC1)C(=O)N[C@@H](CC(=O)NCCOCCOCCOCCNC(=O)c1cccc2cc([Si](F)(C(C)(C)C)C(C)(C)C)sc12)C(=O)N[C@@H](Cc1ccccc1)C(N)=O` [[^18F]-17]: in data set [1] (PET quantification, 1 h post-injection, i.v. tail vein, C57BL6 mice), the “Biodistribution, Muscle” value amounted to 0.36 % ID/g. Also, the tissue uptake at 1 h in data set [1] (female, GI tract, iv, 2.2 MBq, total radioactivity, PET quantification, 1 h post-injection, i.v. tail vein, C57BL6 mice, read-out: Biodistribution, GI) came out at 107 ± 24 %ID/g; in data set [1] (female, bladder, iv, 2.2 MBq, total radioactivity, PET quantification, 1 h post-injection, i.v. tail vein, C57BL6 mice, read-out: Biodistribution, Bladder), 35 ± 12 %ID/g; in data set [1] (female, bone (knee), iv, 2.2 MBq, total radioactivity, PET quantification, 1 h post-injection, i.v. tail vein, C57BL6 mice, read-out: Biodistribution, Bone (knee)) it was 8 ± 0.65 %ID/g; in data set [1] (female, brain, iv, 2.2 MBq, total radioactivity, PET quantification, 1 h post-injection, i.v. tail vein, C57BL6 mice, read-out: Biodistribution, Brain), 0.44 ± 0.06 %ID/g; in data set [1] (female, gallbladder, iv, 2.2 MBq, total radioactivity, PET quantification, 1 h post-injection, i.v. tail vein, C57BL6 mice, read-out: Biodistribution, Gallbladder) it was 33 ± 14 %ID/g; in data set [1] (female, heart, iv, 2.2 MBq, total radioactivity, PET quantification, 1 h post-injection, i.v. tail vein, C57BL6 mice, read-out: Biodistribution, Heart), 2 ± 0.25 %ID/g. Besides, the tissue uptake at 1 h in data set [1] (female, kidney, iv, 2.2 MBq, total radioactivity, PET quantification, 1 h post-injection, i.v. tail vein, C57BL6 mice, read-out: Biodistribution, Kidney) was 2.9 ± 0.62 %ID/g; in data set [1] (female, liver, iv, 2.2 MBq, total radioactivity, PET quantification, 1 h post-injection, i.v. tail vein, C57BL6 mice, read-out: Biodistribution, Liver) it was 5 ± 0.07 %ID/g; in data set [1] (female, muscle, iv, 2.2 MBq, total radioactivity, PET quantification, 1 h post-injection, i.v. tail vein, C57BL6 mice, read-out: Biodistribution, Muscle), 0.36 ± 0.06 %ID/g. For the same compound, the tissue uptake at 2 h came out at 122 ± 48 %ID/g in data set [1] (female, GI tract, iv, 2.2 MBq, total radioactivity, PET quantification, i.v. tail vein, C57BL6 mice, read-out: Biodistribution, GI); 30 ± 7 %ID/g in data set [1] (female, bladder, iv, 2.2 MBq, total radioactivity, PET quantification, i.v. tail vein, C57BL6 mice, read-out: Biodistribution, Bladder); 8.2 ± 0.56 %ID/g in data set [1] (female, bone (knee), iv, 2.2 MBq, total radioactivity, PET quantification, i.v. tail vein, C57BL6 mice, read-out: Biodistribution, Bone (knee)); 0.33 ± 0.03 %ID/g in data set [1] (female, brain, iv, 2.2 MBq, total radioactivity, PET quantification, i.v. tail vein, C57BL6 mice, read-out: Biodistribution, Brain); 28 ± 9 %ID/g in data set [1] (female, gallbladder, iv, 2.2 MBq, total radioactivity, PET quantification, i.v. tail vein, C57BL6 mice, read-out: Biodistribution, Gallbladder); 1.2 ± 0.26 %ID/g in data set [1] (female, heart, iv, 2.2 MBq, total radioactivity, PET quantification, i.v. tail vein, C57BL6 mice, read-out: Biodistribution, Heart). Further, the tissue uptake at 2 h came out at 2.2 ± 0.38 %ID/g in data set [1] (female, kidney, iv, 2.2 MBq, total radioactivity, PET quantification, i.v. tail vein, C57BL6 mice, read-out: Biodistribution, Kidney); 2.4 ± 0.47 %ID/g in data set [1] (female, liver, iv, 2.2 MBq, total radioactivity, PET quantification, i.v. tail vein, C57BL6 mice, read-out: Biodistribution, Liver); 0.27 ± 0.11 %ID/g in data set [1] (female, muscle, iv, 2.2 MBq, total radioactivity, PET quantification, i.v. tail vein, C57BL6 mice, read-out: Biodistribution, Muscle). The tissue uptake in data set [1] (female, mouse, bone, iv, 2.2 MBq, total radioactivity, FIG. 6, time not given, C57BL/6 mice) is 8 %ID/g. In data set [1] (microPET/CT images, C57BL/6 mice, 2.2 MBq via tail vein), the clearance route result was “initial clearance of [^18F]-17 via the kidneys, followed by the reabsorption of radiometabolites and the subsequent hepatobiliary clearance”. Besides, the plasma clearance result in data set [1] (microPET/CT, C57BL/6 mice, 2.2 MBq via tail vein) was “rapid plasma clearance”.
As for `CC(C)(C)[Si](F)(c1cc2cccc(C(=O)O)c2s1)C(C)(C)C` [[^18F]-12, 2-(di-tertbutylfluorosilyl) benzo[b]thiophene-7-carboxylic acid], the “RCC (stability screen)” value in data set [2] (2 min) came out at 95%; in data set [2] (5 min), 96%; in data set [2] (15 min), 97%; in data set [2] (30 min), 97%; in data set [2] (60 min), 97%.
